Test results published in publication PMC11180205, “Single-molecule reconstruction of eukaryotic factor-dependent transcription termination” (Nature Communications, 2024).

Substrate: Nc1ncnc2c1ncn2[C@@H]1O[C@H](COP(=O)(O)OP(=O)(O)OP(=O)(O)O)[C@@H](O)[C@H]1O
Test: single-molecule fluorescence (FRET / SNAP649 dwell time), Michaelis-Menten fit of k1 versus ATP
Assay type: biochemical, Saccharomyces cerevisiae
Conditions: k1 step: ATP-dependent translocation on nascent RNA to stalled Pol II TEC (bioPol II/RNA-Cy3/DNA or Pol II/RNA-Cy3/bioDNA, 28 bp transcription unit); 10 nM Sen1 HD-SNAP649, 2 nM TFIIS, UTP and CTP, 20; pH 8.0

B1: Sen1 HD-SNAP649 (Sen1 helicase domain) (Saccharomyces cerevisiae S288C) (protein)
chain: AELAKQELEHMRKRLNVDMNPLYEIILQWDYTRNSEYPDDEPIGNYSDVKDFFNSPADYQKVMKPLLLLESWQGLCSSRDREDYKPFSIIVGNRTAVSDFYDVYASVAKQVIQDCGISESDLIVMAYLPDFRPDKRLSSDDFKKAQHTCLAKVRTLKNTKGGNVDVTLRIHRNHSFSKFLTLRSEIYCVKVMQMTTIEREYSTLEGLEYYDLVGQILQAKPSPPVNVDAAEIETVKKSYKLNTSQAEAIVNSVSKEGFSLIQGPPGTGKTKTILGIIGYFLSTKNASSSNVIKVPLEKNSSNTEQLLKKQKILICAPSNAAVDEICLRLKSGVYDKQGHQFKPQLVRVGRSDVVNVAIKDLTLEELVDKRIGERNYEIRTDPELERKFNNAVTKRRELRGKLDSESGNPESPMSTEDISKLQLKIRELSKIINELGRDRDEMREKNSVNYRNRDLDRRNAQAHILAVSDIICSTLSGSAHDVLATMGIKFDTVIIDEACQCTELSSIIPLRYGGKRCIMVGDPNQLPPTVLSGAASNFKYNQSLFVRMEKNSSPYLLDVQYRMHPSISKFPSSEFYQGRLKDGPGMDILNKRPWHQLEPLAPYKFFDIISGRQEQNAKTMSYTNMEEIRVAIELVDYLFRKFDNKIDFTGKIGIISPYREQMQKMRKEFARYFGGMINKSIDFNTIDGFQGQEKEIILISCVRADDTKSSVGFLKDFRRMNVALTRAKTSIWVLGHQRSLAKSKLWRDLIEDAKDRSCLAYACSGFLDPRNNRAQSILRKFNVPVPSEQEDDYKLPMEYITQGPDEVKSN
notes: helicase domain, residues 1095-1904; C-terminal PreScission site, SNAP-tag and 10xHis-tag kept, labelled with SNAP-Surface 649; expressed in E. coli BL21(DE3) codon plus RIPL; single molecule acts
Protein B1 has a Km of 40 ± 15 µM.
